Target: His-tagged recombinant Ebola virus glycoprotein (rGP) expressed in insect cells (Ebola virus (EBOV)) (UniProt Q05320)
Assay: ELISA

With Fab-KZ52 as the substance, how does the GP binding affinity (absorbance normalized by the negative control) read?
Its GP binding affinity (absorbance normalized by the negative control) is 16.6.

And the absorbance signal ratio between positive binding samples and blanks?
The absorbance signal ratio between positive binding samples and blanks was 10.2.

What about the ratio of GP-binding affinity to HA-RBD affinity (GP/HA) of the same substance?
Its ratio of GP-binding affinity to HA-RBD affinity (GP/HA) is 3.91.

How did the GP binding affinity (absorbance normalized by the negative control) (normalized units) turn out when scFv-13C6 was run?
The GP binding affinity (absorbance normalized by the negative control) (normalized units) was 11.1.

What about the absorbance signal ratio between positive binding samples and blanks of the same substance?
The absorbance signal ratio between positive binding samples and blanks was 19.1.

What about the ratio of GP-binding affinity to HA-RBD affinity (GP/HA) of the same substance?
The ratio of GP-binding affinity to HA-RBD affinity (GP/HA) was 5.

For scFv-13F6, which GP binding affinity (absorbance normalized by the negative control) (normalized units) is on record?
Its GP binding affinity (absorbance normalized by the negative control) (normalized units) is 9.65.

And the absorbance signal ratio between positive binding samples and blanks?
The absorbance signal ratio between positive binding samples and blanks was 13.9.

And the ratio of GP-binding affinity to HA-RBD affinity (GP/HA)?
The ratio of GP-binding affinity to HA-RBD affinity (GP/HA) was 4.48.
